Test results taken from the Immune Epitope Database (IEDB).

Key:
HLA-A*68:02 [1] = assay: IEDB peptide-MHC binding, cellular MHC/competitive/fluorescence; ≥ and ≤ were set here for values at or beyond the usual limits of such assays
HLA-A*02:01 [2] = assay: IEDB peptide-MHC binding, purified MHC/competitive/radioactivity; ≥ and ≤ were set here for values at or beyond the usual limits of such assays
HLA-A*02:02 = assay: as above
HLA-A*02:03 = assay: as above
HLA-A*02:06 = assay: as above
HLA-A*02:01 [3] = assay: IEDB peptide-MHC binding, cellular MHC/competitive/fluorescence; ≥ and ≤ were set here for values at or beyond the usual limits of such assays; settings: source organism: Vaccinia virus WR
HLA-A*68:02 [4] = assay: IEDB peptide-MHC binding, purified MHC/competitive/radioactivity; ≥ and ≤ were set here for values at or beyond the usual limits of such assays; settings: source organism: Vaccinia virus WR
[5] = source organism: Hepacivirus hominis
[6] = source organism: Vaccinia virus WR
[7] = source organism: Influenza A virus
[8] = source organism: Mammarenavirus choriomeningitidis

Sequence	IC50 (HLA-A*68:02 [1]; [6])	IC50 (HLA-A*02:01 [2]; [6])	IC50 (HLA-A*02:02; [6])	IC50 (HLA-A*02:03; [6])	IC50 (HLA-A*02:06; [6])	also measured
YLYGIGSAVV	–	–	–	–	–	IC50 (HLA-A*68:02 [1]; [5]): 5120 nM; IC50 (HLA-A*02:01 [2]; [5]): 39 nM; IC50 (HLA-A*02:02; [5]): 12 nM; IC50 (HLA-A*02:03; [5]): 3.5 nM; IC50 (HLA-A*02:06; [5]): 285 nM
HLDGEVLSL	–	–	–	–	–	IC50 (HLA-A*68:02 [1]; source organism: SARS-CoV1): 13600 nM; IC50 (HLA-A*02:01 [2]; source organism: SARS-CoV1): 67 nM; IC50 (HLA-A*02:02; source organism: SARS-CoV1): 66 nM; IC50 (HLA-A*02:03; source organism: SARS-CoV1): 131 nM; IC50 (HLA-A*02:06; source organism: SARS-CoV1): 160 nM
FLLALLSCL	–	–	–	–	–	IC50 (HLA-A*68:02 [1]; [5]): 14000 nM; IC50 (HLA-A*02:01 [2]; [5]): 2.8 nM; IC50 (HLA-A*02:02; [5]): 2.6 nM; IC50 (HLA-A*02:03; [5]): 17 nM; IC50 (HLA-A*02:06; [5]): 24 nM
GLCNYGGIL	≥ 70000 nM	412 nM	98 nM	125 nM	1360 nM	–
RMPTDMLKL	≥ 70000 nM	1840 nM	950 nM	106 nM	678 nM	–
GLDERFVEEL	6180 nM	331 nM	93 nM	1210 nM	2520 nM	–
LLYFILFFVA	–	–	–	–	–	IC50 (HLA-A*68:02 [1]; [5]): ≥ 70000 nM; IC50 (HLA-A*02:01 [2]; [5]): 1120 nM; IC50 (HLA-A*02:02; [5]): 3740 nM; IC50 (HLA-A*02:03; [5]): 4700 nM; IC50 (HLA-A*02:06; [5]): 993 nM
YLGHSAGFT	8450 nM	1560 nM	874 nM	225 nM	4540 nM	–
FQFICNLLLL	–	–	–	–	–	IC50 (HLA-A*68:02 [1]; source organism: SARS-CoV1): 9080 nM; IC50 (HLA-A*02:01 [2]; source organism: SARS-CoV1): 5.3 nM; IC50 (HLA-A*02:02; source organism: SARS-CoV1): 7.9 nM; IC50 (HLA-A*02:03; source organism: SARS-CoV1): 62 nM; IC50 (HLA-A*02:06; source organism: SARS-CoV1): 0.87 nM
DLLFNEKLKV	9970 nM	149 nM	357 nM	317 nM	2020 nM	–
LLSTTEWQV	–	–	–	–	–	IC50 (HLA-A*68:02 [1]; [5]): 27300 nM; IC50 (HLA-A*02:01 [2]; [5]): 67 nM; IC50 (HLA-A*02:02; [5]): 4.9 nM; IC50 (HLA-A*02:03; [5]): 95 nM; IC50 (HLA-A*02:06; [5]): 333 nM
ALQLLLEV	–	–	–	–	–	IC50 (HLA-A*68:02 [1]; [7]): ≥ 70000 nM
KLPTWLGAA	≥ 70000 nM	207 nM	499 nM	8 nM	9.4 nM	–
IMRNFLRSIA	54200 nM	813 nM	60 nM	122 nM	544 nM	–
LMWFIISIV	–	–	–	–	–	IC50 (HLA-A*68:02 [1]; source organism: SARS-CoV1): 18400 nM; IC50 (HLA-A*02:01 [2]; source organism: SARS-CoV1): 9.8 nM; IC50 (HLA-A*02:02; source organism: SARS-CoV1): 60 nM; IC50 (HLA-A*02:03; source organism: SARS-CoV1): 7.2 nM; IC50 (HLA-A*02:06; source organism: SARS-CoV1): 27 nM
VLEKKVCAIT	≥ 70000 nM	3510 nM	590 nM	1240 nM	1680 nM	–
LLYFILFFV	–	–	–	–	–	IC50 (HLA-A*68:02 [1]; [5]): 23000 nM; IC50 (HLA-A*02:01 [2]; [5]): 164 nM; IC50 (HLA-A*02:02; [5]): 227 nM; IC50 (HLA-A*02:03; [5]): 323 nM; IC50 (HLA-A*02:06; [5]): 504 nM
GLKIEEIEKV	≥ 70000 nM	65 nM	15 nM	6.6 nM	198 nM	–

Sequence	IC50 (HLA-A*68:02 [1]; [6])	IC50 (HLA-A*02:01 [2]; [6])	IC50 (HLA-A*02:02; [6])	IC50 (HLA-A*02:03; [6])	IC50 (HLA-A*02:06; [6])	also measured
LSAEELMSL	–	–	–	–	–	IC50 (HLA-A*68:02 [1]; [8]): 5820 nM; IC50 (HLA-A*02:01 [2]; [8]): 2210 nM; IC50 (HLA-A*02:02; [8]): 65 nM; IC50 (HLA-A*02:03; [8]): 706 nM; IC50 (HLA-A*02:06; [8]): 66 nM
VIPDELIDV	52200 nM	229 nM	609 nM	44 nM	556 nM	–
VLLPFYETL	24300 nM	7.2 nM	4060 nM	267 nM	218 nM	–
SLIYYQNEVT	7200 nM	529 nM	77 nM	606 nM	4310 nM	–
SIKMIYDLNA	5810 nM	1780 nM	852 nM	257 nM	1030 nM	–
SMYVIPDEL	7090 nM	91 nM	5 nM	13 nM	2820 nM	–
LILSNKLLYA	9790 nM	169 nM	468 nM	122 nM	36 nM	–
SLGKSPLPSL	12800 nM	134 nM	4.1 nM	47 nM	1430 nM	–
PVLEKKVCAI	39700 nM	1530 nM	541 nM	1190 nM	1040 nM	–
RLFTRCAVI	6640 nM	209 nM	94 nM	249 nM	2820 nM	–
KLLIVLTCI	–	–	–	–	–	IC50 (HLA-A*68:02 [1]; source organism: SARS-CoV1): 5470 nM; IC50 (HLA-A*02:01 [2]; source organism: SARS-CoV1): 229 nM; IC50 (HLA-A*02:02; source organism: SARS-CoV1): 260 nM; IC50 (HLA-A*02:03; source organism: SARS-CoV1): 1940 nM; IC50 (HLA-A*02:06; source organism: SARS-CoV1): 449 nM
GMYYPTNDI	≥ 70000 nM	268 nM	53 nM	8.7 nM	1680 nM	–
RLIDFLKDV	–	–	–	–	–	IC50 (HLA-A*68:02 [1]; [7]): 31500 nM; IC50 (HLA-A*02:02; [7]): 16 nM; IC50 (HLA-A*02:03; [7]): 7.3 nM; IC50 (HLA-A*02:06; [7]): 65 nM
ALLSCLTTPA	–	–	–	–	–	IC50 (HLA-A*68:02 [1]; [5]): ≥ 70000 nM; IC50 (HLA-A*02:01 [2]; [5]): 161 nM; IC50 (HLA-A*02:02; [5]): 439 nM; IC50 (HLA-A*02:03; [5]): 211 nM; IC50 (HLA-A*02:06; [5]): 231 nM
ILDNLRCHSA	12800 nM	63 nM	972 nM	69 nM	297 nM	–
KVDDTFYYV	45500 nM	–	–	–	–	–
ALCKVTVPT	≥ 70000 nM	–	110 nM	130 nM	210 nM	–
LTGTFVTAFI	–	–	672 nM	596 nM	413 nM	IC50 (HLA-A*02:01 [3]): 5050 nM; IC50 (HLA-A*68:02 [4]): 109 nM
